PMC9482650, “Quantitative fragmentomics allow affinity mapping of interactomes” (Nature Communications, 2022)
Blank lines part the entries; values can stand above or below the binder they belong to.

How the values were obtained:
Assay in all cases: holdup assay
Parameters in all cases: key: below the threshold = too weak to quantify, mostly under pKd 3.1 to 4
DLG4_2, P78352 = biological target: DLG4_2, P78352
DLG4_3, P78352 = biological target: DLG4_3, P78352
DLG5_1, Q8TDM6 = biological target: DLG5_1, Q8TDM6
DLG5_1, Q8TDM6, sequence (Q8TDM6 617-713): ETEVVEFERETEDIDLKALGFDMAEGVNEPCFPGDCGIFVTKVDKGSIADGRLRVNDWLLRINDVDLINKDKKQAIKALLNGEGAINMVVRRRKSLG

FRMPD2_1, Q68DX3 = biological target: FRMPD2_1, Q68DX3
FRMPD2_1, Q68DX3, sequence (Q68DX3 770-861): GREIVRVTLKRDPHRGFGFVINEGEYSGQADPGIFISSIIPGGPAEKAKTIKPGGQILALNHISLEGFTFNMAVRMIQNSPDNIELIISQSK

FRMPD2_2, Q68DX3 = biological target: FRMPD2_2, Q68DX3
FRMPD2_2, Q68DX3, sequence (Q68DX3 944-1038): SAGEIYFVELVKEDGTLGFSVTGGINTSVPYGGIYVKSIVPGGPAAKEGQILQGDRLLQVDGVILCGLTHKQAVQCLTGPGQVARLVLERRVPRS

GRID2IP_1, A4D2P6 = biological target: GRID2IP_1, A4D2P6
GRID2IP_1, A4D2P6, sequence (A4D2P6 1-87): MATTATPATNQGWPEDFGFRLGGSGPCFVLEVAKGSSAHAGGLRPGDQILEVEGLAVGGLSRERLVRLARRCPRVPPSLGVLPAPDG

GRID2IP_2, A4D2P6 = biological target: GRID2IP_2, A4D2P6
GRID2IP_2, A4D2P6, sequence (A4D2P6 272-370): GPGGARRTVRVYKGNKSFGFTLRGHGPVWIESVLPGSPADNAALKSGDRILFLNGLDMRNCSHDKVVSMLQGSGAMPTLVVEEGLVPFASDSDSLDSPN

GRIP1_5, Q9Y3R0 = biological target: T1, GRIP1_5, Q9Y3R0
T1 sequence (Q9Y3R0 568-668, limits assumed, looked up): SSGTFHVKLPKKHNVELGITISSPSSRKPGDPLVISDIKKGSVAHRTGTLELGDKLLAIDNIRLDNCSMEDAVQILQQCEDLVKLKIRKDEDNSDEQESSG

IL16_1, Q14005 = biological target: IL16_1, Q14005
IL16_1, Q14005, sequence (Q14005 210-306): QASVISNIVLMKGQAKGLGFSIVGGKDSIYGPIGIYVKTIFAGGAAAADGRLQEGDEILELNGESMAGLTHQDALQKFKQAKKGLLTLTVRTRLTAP

LDB3, O75112 = biological target: LDB3, O75112
LDB3, O75112, sequence (O75112 1-94): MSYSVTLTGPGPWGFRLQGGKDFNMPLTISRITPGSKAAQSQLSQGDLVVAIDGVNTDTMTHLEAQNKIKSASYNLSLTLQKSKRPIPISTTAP

LNX2_2, Q8N448 = biological target: T2, LNX2_2, Q8N448
T2 sequence (Q8N448 334-432, limits assumed, looked up): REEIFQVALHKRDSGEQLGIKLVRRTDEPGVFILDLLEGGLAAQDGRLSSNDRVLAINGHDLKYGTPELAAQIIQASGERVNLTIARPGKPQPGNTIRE

MAGI2_2, Q86UL8 = biological target: MAGI2_2, Q86UL8
MAGI2_2, Q86UL8, sequence (Q86UL8 410-522): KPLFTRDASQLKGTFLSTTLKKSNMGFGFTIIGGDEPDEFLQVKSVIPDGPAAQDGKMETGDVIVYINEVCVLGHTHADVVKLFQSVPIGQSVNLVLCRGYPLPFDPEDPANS

MAGI2_3, Q86UL8 = biological target: MAGI2_3, Q86UL8
MAGI2_3, Q86UL8, sequence (Q86UL8 600-682): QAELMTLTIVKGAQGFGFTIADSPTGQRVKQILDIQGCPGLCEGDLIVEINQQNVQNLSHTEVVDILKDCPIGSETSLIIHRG

MAGI2_5, Q86UL8 = biological target: MAGI2_5, Q86UL8
MAGI2_5, Q86UL8, sequence (Q86UL8 915-1017): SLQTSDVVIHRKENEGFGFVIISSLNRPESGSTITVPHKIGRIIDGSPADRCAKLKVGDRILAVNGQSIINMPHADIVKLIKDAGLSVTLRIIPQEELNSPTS

MAGI3_2, Q5TCQ9 = biological target: MAGI3_2, Q5TCQ9
MAGI3_2, Q5TCQ9, sequence (Q5TCQ9 398-503): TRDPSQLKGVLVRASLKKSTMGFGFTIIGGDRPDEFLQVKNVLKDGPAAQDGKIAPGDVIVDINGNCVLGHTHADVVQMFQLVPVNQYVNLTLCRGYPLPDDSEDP

MPDZ_12, O75970 = biological target: T3, MPDZ_12, O75970
T3 sequence (O75970 1857-1958, limits assumed, looked up): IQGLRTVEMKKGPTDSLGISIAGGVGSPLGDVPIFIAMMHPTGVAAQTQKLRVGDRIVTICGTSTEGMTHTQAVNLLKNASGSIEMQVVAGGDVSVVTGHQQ

NHERF3_4, Q5T2W1 = biological target: T4, NHERF3_4, Q5T2W1
T4 sequence (Q5T2W1 373-468, limits assumed, looked up): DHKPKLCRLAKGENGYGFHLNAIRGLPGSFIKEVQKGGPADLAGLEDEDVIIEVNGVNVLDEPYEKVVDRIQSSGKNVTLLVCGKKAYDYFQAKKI

NOS1, P29475 = biological target: NOS1, P29475
NOS1, P29475, sequence (P29475 9-101): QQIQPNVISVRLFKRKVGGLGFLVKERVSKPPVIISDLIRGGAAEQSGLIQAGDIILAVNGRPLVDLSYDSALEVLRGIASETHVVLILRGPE

PARD3_3, Q8TEW0 = biological target: PARD3_3, Q8TEW0
PARD3_3, Q8TEW0, sequence (Q8TEW0 582-685): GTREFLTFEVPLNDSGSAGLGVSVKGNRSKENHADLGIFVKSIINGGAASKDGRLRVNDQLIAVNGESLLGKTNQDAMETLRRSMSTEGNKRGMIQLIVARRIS

PDZRN3_1, Q9UPQ7 = biological target: T5, PDZRN3_1, Q9UPQ7
T5 sequence (Q9UPQ7 244-349, limits assumed, looked up): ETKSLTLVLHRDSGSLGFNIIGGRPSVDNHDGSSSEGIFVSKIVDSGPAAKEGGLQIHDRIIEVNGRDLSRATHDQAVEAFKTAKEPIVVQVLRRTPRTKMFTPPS

SCRIB_2, Q14160 = biological target: SCRIB_2, Q14160
SCRIB_2, Q14160, sequence (Q14160 857-960): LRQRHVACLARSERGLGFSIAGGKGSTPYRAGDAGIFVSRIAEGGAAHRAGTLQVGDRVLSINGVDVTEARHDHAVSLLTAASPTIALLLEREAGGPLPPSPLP

SNTG1, Q9NSN8 = biological target: T6, SNTG1, Q9NSN8
T6 sequence (Q9NSN8 52-150, limits assumed, looked up): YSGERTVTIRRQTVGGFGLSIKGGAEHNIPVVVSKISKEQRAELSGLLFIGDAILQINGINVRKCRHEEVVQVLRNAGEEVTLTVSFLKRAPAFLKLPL

SNTG2, Q9NY99 = biological target: T7, SNTG2, Q9NY99
T7 sequence (Q9NY99 68-166, limits assumed, looked up): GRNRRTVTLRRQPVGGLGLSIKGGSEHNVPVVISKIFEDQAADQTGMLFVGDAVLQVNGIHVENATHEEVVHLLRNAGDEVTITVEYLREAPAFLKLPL

SNX27, Q96L92 = biological target: SNX27, Q96L92
SYNJ2BP, P57105 = biological target: T8, SYNJ2BP, P57105
T8 sequence (P57105 8-110, limits assumed, looked up): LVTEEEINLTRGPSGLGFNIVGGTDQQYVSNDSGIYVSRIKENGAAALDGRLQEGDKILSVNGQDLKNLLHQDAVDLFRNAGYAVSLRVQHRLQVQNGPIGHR

TIAM2, Q8IVF5 = biological target: T9, TIAM2, Q8IVF5
T9 sequence (Q8IVF5 885-986, limits assumed, looked up): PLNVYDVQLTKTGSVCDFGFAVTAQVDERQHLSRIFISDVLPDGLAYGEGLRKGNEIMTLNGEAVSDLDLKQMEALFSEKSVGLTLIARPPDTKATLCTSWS

TJP1_2, Q07157 = biological target: TJP1_2, Q07157
TJP1_2, Q07157, sequence (Q07157 181-274): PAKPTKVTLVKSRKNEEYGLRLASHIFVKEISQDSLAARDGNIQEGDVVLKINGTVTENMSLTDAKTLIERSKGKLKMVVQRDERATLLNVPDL

TX1BP3, O14907 = biological target: T10, TX1BP3, O14907
T10 sequence (O14907 10-122, limits assumed, looked up): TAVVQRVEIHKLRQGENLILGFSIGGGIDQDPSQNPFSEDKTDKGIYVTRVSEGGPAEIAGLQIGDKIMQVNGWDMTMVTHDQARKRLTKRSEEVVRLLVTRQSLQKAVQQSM

[1] = plain residues with an end cap or a label only (N-terminal biotin on a linker: ahx)
[2] = plain residues with an end cap or a label only (N-terminal biotin on a linker: ttds)

DLG4_3, P78352, sequence (P78352 306-403): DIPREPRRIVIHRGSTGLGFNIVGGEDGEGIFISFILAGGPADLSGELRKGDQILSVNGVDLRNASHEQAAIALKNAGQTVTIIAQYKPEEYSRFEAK
DLG4_2, P78352, sequence (P78352 155-259): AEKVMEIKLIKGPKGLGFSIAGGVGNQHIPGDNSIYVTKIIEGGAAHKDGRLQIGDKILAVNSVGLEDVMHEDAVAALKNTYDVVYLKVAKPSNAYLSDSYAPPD

pKd (DLG4_2, P78352; [1]): below the threshold | pKd (DLG4_3, P78352; [1]): below the threshold | pKd (DLG5_1, Q8TDM6; [1]): below the threshold | pKd (FRMPD2_1, Q68DX3; [1]): below the threshold | pKd (FRMPD2_2, Q68DX3; [1]): below the threshold | pKd (GRID2IP_1, A4D2P6; [1]): below the threshold | pKd (GRID2IP_2, A4D2P6; [1]): below the threshold | pKd (GRIP1_5, Q9Y3R0; [1]): below the threshold | pKd (IL16_1, Q14005; [1]): below the threshold | pKd (LDB3, O75112; [1]): below the threshold | pKd (LNX2_2, Q8N448; [1]): below the threshold | pKd (MAGI2_2, Q86UL8; [1]): below the threshold | pKd (MAGI2_3, Q86UL8; [1]): below the threshold | pKd (MAGI2_5, Q86UL8; [1]): below the threshold | pKd (MAGI3_2, Q5TCQ9; [1]): below the threshold | pKd (MPDZ_12, O75970; [1]): below the threshold | pKd (NHERF3_4, Q5T2W1; [1]): 3.54 | pKd (NOS1, P29475; [1]): below the threshold | pKd (PARD3_3, Q8TEW0; [1]): 3.79 | pKd (PDZRN3_1, Q9UPQ7; [1]): 3.54 | pKd (SCRIB_2, Q14160; [1]): below the threshold | pKd (SNTG1, Q9NSN8; [1]): below the threshold | pKd (SNTG2, Q9NY99; [1]): below the threshold | pKd (SNX27, Q96L92; [1]): 3.6 | pKd (SYNJ2BP, P57105; [1]): below the threshold | pKd (TIAM2, Q8IVF5; [1]): below the threshold | pKd (TJP1_2, Q07157; [1]): below the threshold | pKd (TX1BP3, O14907; [1]): 3.49
B1: ADRB2, P07550 (peptide)
chain: RNCSTNDSLL

pKd (DLG4_2, P78352; [2]): 4.15 | pKd (DLG4_3, P78352; [2]): 4.01 | pKd (DLG5_1, Q8TDM6; [2]): below the threshold | pKd (FRMPD2_1, Q68DX3; [2]): below the threshold | pKd (FRMPD2_2, Q68DX3; [2]): 3.48 | pKd (GRID2IP_1, A4D2P6; [2]): below the threshold | pKd (GRID2IP_2, A4D2P6; [2]): 4.17 | pKd (GRIP1_5, Q9Y3R0; [2]): below the threshold | pKd (IL16_1, Q14005; [2]): below the threshold | pKd (LDB3, O75112; [2]): below the threshold | pKd (LNX2_2, Q8N448; [2]): below the threshold | pKd (MAGI2_2, Q86UL8; [2]): 3.86 | pKd (MAGI2_3, Q86UL8; [2]): 3.5 | pKd (MAGI2_5, Q86UL8; [2]): 4.31 | pKd (MAGI3_2, Q5TCQ9; [2]): 3.69 | pKd (MPDZ_12, O75970; [2]): below the threshold | pKd (NHERF3_4, Q5T2W1; [2]): 3.94 | pKd (NOS1, P29475; [2]): 3.77 | pKd (PARD3_3, Q8TEW0; [2]): 3.82 | pKd (PDZRN3_1, Q9UPQ7; [2]): 5.09 | pKd (SCRIB_2, Q14160; [2]): 4.27 | pKd (SNTG1, Q9NSN8; [2]): 4.36 | pKd (SNTG2, Q9NY99; [2]): 4.66 | pKd (SNX27, Q96L92; [2]): 5.48 | pKd (SYNJ2BP, P57105; [2]): 4.91 | pKd (TIAM2, Q8IVF5; [2]): below the threshold | pKd (TJP1_2, Q07157; [2]): below the threshold | pKd (TX1BP3, O14907; [2]): 4.45
B2: ATP2B1, P20020 (peptide)
chain: SPLHSLETSL

pKd (DLG4_2, P78352; [1]): 4.13 | pKd (DLG4_3, P78352; [1]): below the threshold | pKd (DLG5_1, Q8TDM6; [1]): below the threshold | pKd (FRMPD2_1, Q68DX3; [1]): below the threshold | pKd (FRMPD2_2, Q68DX3; [1]): 4.72 | pKd (GRID2IP_1, A4D2P6; [1]): below the threshold | pKd (GRID2IP_2, A4D2P6; [1]): 4.27 | pKd (GRIP1_5, Q9Y3R0; [1]): below the threshold | pKd (IL16_1, Q14005; [1]): below the threshold | pKd (LDB3, O75112; [1]): below the threshold | pKd (LNX2_2, Q8N448; [1]): 4.62 | pKd (MAGI2_2, Q86UL8; [1]): 4.29 | pKd (MAGI2_3, Q86UL8; [1]): below the threshold | pKd (MAGI2_5, Q86UL8; [1]): 4.37 | pKd (MAGI3_2, Q5TCQ9; [1]): 4.72 | pKd (MPDZ_12, O75970; [1]): 3.78 | pKd (NHERF3_4, Q5T2W1; [1]): below the threshold | pKd (NOS1, P29475; [1]): 3.66 | pKd (PARD3_3, Q8TEW0; [1]): below the threshold | pKd (PDZRN3_1, Q9UPQ7; [1]): below the threshold | pKd (SCRIB_2, Q14160; [1]): 3.47 | pKd (SNTG1, Q9NSN8; [1]): 3.55 | pKd (SNTG2, Q9NY99; [1]): below the threshold | pKd (SNX27, Q96L92; [1]): 4.05 | pKd (SYNJ2BP, P57105; [1]): 4.26 | pKd (TIAM2, Q8IVF5; [1]): below the threshold | pKd (TJP1_2, Q07157; [1]): below the threshold | pKd (TX1BP3, O14907; [1]): 3.78
B3: RGS12, O14924 (peptide)
chain: KTSAHHATFV
